Source: patent US20180355046A1 (Boehringer Ingelheim, published 2018)

Molecular target: human TrkB receptor on cells (human, UniProt Q16620 32-822)
Assay: cell-based or functional assay

Chain of human TrkB receptor on cells (Q16620 32-822): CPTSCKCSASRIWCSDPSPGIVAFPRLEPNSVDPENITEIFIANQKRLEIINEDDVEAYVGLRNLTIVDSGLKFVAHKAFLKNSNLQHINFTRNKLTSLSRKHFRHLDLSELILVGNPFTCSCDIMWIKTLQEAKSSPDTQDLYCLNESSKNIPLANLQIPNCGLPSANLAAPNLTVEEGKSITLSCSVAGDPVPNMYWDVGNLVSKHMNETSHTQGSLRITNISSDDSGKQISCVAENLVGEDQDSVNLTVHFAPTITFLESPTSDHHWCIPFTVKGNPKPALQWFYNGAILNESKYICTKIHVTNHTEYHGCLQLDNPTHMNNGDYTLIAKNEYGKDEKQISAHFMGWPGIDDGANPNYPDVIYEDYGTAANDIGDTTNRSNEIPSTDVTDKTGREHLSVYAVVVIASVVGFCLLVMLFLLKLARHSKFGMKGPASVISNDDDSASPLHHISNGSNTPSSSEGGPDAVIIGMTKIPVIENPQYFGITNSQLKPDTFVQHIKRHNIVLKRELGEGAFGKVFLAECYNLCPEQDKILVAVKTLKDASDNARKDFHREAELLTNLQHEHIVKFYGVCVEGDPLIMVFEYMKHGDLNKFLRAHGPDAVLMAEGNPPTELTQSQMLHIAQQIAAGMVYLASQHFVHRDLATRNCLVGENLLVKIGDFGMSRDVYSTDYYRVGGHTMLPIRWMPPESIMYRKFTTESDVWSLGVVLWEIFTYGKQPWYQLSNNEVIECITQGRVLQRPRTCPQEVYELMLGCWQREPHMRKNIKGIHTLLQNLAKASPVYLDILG

AKT 1/2/3-P (T308), differentiated SH-SY5Y cells, EC50: 0.255 nM
TrkB-P (TrkB phosphorylation, AlphaLISA, differentiated SH-SY5Y cells), EC50: 0.43 nM
B1: brain-derived neurotrophic factor (BDNF) (ligand, UniProt P23560 129-247, looked up)
chain: HSDPARRGELSVCDSISEWVTAADKKTAVDMSGGTVTVLEKVPVSKGQLKQYFYETKCNPMGYTKEGCRGIDKRHWNSQCRTTQSYVRALTMDSKKRIGWRFIRIDTSCVCTLTIKRGR
